Laboratory results from PMC5862564.
Values joined by “and” are separate entries in the source; they are usually repeats but may differ in a detail not shown here. Equal values may be shown once.

Tests used:
[1] = target: SKAP2N1 (SKAP2 with Gaussia princeps luciferase fragment 1 at its N-terminal end) (UniProt O75563); test: GPCA; settings: read off a plot
[2] = target: FYB fused N-terminally to Gaussia princeps luciferase fragment 1, O15117-3; test: GPCA; settings: read off a plot
HaloTag-FYB (human) = HaloTag-FYB (human) (UniProt O15117); test: pull-down + split reporter (BiFC, NanoBiT); HaloTag-fused hook captured from HEK293T lysate on HaloLink resin, 6 washes with PBS 0.1% Tween; luminescence of the co-expressed GPCA pair on the resin; ratio of cells with the HaloTag vector to cells with the pCNeo vector expressing the same protein

Sequence of FYB fused N-terminally to Gaussia princeps luciferase fragment 1, O15117-3 (O15117 other isoform, or with tags, fused parts or gaps): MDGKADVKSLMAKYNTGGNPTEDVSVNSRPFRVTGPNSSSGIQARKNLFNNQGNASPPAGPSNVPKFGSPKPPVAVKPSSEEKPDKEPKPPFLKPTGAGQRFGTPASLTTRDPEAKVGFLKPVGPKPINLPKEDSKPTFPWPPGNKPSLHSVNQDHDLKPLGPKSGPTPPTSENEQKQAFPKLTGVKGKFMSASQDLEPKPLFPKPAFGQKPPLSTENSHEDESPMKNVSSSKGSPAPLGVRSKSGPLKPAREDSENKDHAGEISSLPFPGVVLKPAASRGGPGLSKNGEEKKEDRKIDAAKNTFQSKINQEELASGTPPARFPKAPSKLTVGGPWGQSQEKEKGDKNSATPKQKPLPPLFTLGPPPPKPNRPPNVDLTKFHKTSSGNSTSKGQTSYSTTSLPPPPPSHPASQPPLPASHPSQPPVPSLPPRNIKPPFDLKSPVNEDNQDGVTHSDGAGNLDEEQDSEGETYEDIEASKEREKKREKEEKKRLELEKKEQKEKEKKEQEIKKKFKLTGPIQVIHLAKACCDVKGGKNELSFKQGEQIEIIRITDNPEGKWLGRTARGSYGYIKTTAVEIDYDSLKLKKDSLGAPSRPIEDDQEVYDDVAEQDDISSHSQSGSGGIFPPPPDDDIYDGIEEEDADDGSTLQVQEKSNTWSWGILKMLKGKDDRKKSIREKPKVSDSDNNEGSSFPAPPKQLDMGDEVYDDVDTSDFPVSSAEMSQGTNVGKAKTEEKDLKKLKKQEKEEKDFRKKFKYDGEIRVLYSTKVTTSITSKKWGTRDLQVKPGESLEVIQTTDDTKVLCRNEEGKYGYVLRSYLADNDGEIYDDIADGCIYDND

Row | Substance | response ([1]; with A23187, parent: est. 320) [NLR] | response ([1]; without A23187 (NT), parent: est. 240) [NLR] | response ([2]; HCK-P249A 0 ng, with A23187, parent: est. 850) [NLR] | response ([2]; HCK-P249A 0 ng, without A23187, parent: est. 280) [NLR] | response ([2]; HCK-P249A 25 ng, with A23187, parent: est. 1000) [NLR] | response ([2]; HCK-P249A 25 ng, without A23187, parent: est. 190) [NLR] | response ([2]; HCK-P249A 50 ng, with A23187, parent: est. 730) [NLR] | response ([2]; HCK-P249A 50 ng, without A23187, parent: est. 540) [NLR] | response ([2]; HCK-P249A 100 ng, with A23187, parent: est. 480) [NLR] | response ([2]; HCK-P249A 100 ng, without A23187, parent: est. 570) [NLR] | response ([2]; with A23187, parent: est. 760) [NLR] | response ([2]; without A23187 (NT), parent: est. 390) [NLR] | luminescence ratio (HaloTag vector to pCNeo control) (HaloTag-FYB (human))
1 | SKAP2 V24D; F27D; V28E | 4.9 | 2.2 | 2000 | 1000 | 2500 | 570 | 1900 | 1400 | 1300 | 1500 | 1500 | 540 | 
2 | SKAP2 homo-dimer of two hemi-luciferase-fused SKAP2 (the pair generating the luciferase signal) (from UniProt O75563 1-359) (complex) |  |  |  |  |  |  |  |  |  |  |  |  | 49.1 and 135 and 51.8
3 | SKAP2-DIMPH hetero-dimer of hemi-luciferase-fused DIMPH and hemi-luciferase-fused SKAP2 (from UniProt O75563 1-222; O75563 1-359) (complex) |  |  |  |  |  |  |  |  |  |  |  |  | 125 and 308 and 160
